Drawing on publication PMC4029776, “Transiently Produced Hypochlorite Is Responsible for the Irreversible Inhibition of Chlorite Dismutase” (Biochemistry, 2014), this text covers pKa, Km and kcat for two molecules.

The subject of data set [1] is Arg183. As to the kind of experiment: kinetics. The settings on record: ferric heme enzyme, chlorite turnover (inferred from context); cited from earlier work.
Substrate in data set [2]: [O-][Cl+]O
Put plainly: Clark-type O2 electrode, initial rates, Michaelis-Menten. The settings on record: pH 7.0, 50 mM phosphate, 30 °C, 50 nM enzyme, NaClO2 10-1000 μM. It is filed as biochemical, Nitrospira defluvii.

Usually Km stands for the concentration of substrate that gives half-maximal velocity.

“Chlorite dismutase (DaCld) (Dechloromonas aromatica)”: the pKa result in data set [1] was “∼pH 6.5”.

B1: NdCld (chlorite dismutase from "Candidatus Nitrospira defluvii") (Nitrospira defluvii) (protein)
chain: ADREKLLTESGVYGTFATFQMDHDWWDLPGESRVISVAEVKGLVEQWSGKILVESYLLRGLSDHADLMFRVHARTLSDTQQFLSAFMGTRLGRHLTSGGLLHGVSKKPTYVAGFPESMKTELQVNGESGSRPYAIVIPIKKDAEWWALDQEARTALMQEHTQAALPYLKTVKRKLYHSTGLDDVDFITYFETERLEDFHNLVRALQQVKEFRHNRRFGHPTLLGTMSPLDEILEKFAQ
On to B1, for which, in data set [2], the Michaelis constant (Km) is 138 ± 20 µM and the kcat came to 83 ± 4 s^–1.
